# From patent US12098176B2, “Keratin BD-4, preparation method, and pharmaceutical composition and use thereof” (Institute of Materia Medica, Chinese Academy of Medical …, priority 2019, dated 2024)
# B1: BD-4: recombinant keratin, amino acid sequence SEQ ID NO: 1, expressed in E. coli; the protein of Example 4 was tested (protein, listed as Bos taurus)
# chain: MSYSCCLPNLSFRSSCSSRPCVPSSCCGTTLPGACNIPANVGSCNWFCEGSFNGSEKETMQFLNDRLASYLEKVRQLERDNAELESRILERSQQQEPLVCPNYQSYFRTIEELQQKILCSKSENARLVVQIDNAKLASDDFRTKYETEVSLRQLVEADLNGLRRILDELTLCKSDLEARVESLKEELICLKQNHEQEVNTLRSQLGDRLNVEVDAAPTVDLNRVLNETRAQYEALVETNRRDVEEWYIRQTEELNKQVVSSSEQLQSYQAEIIELRRTVNALEVELQAQHNLRDSLENTLTETEARYSCQLAQVQGLIGNVESQLAEIRSDLERQNQEYQVLLDVRARLECEINTYRGLLDSEDCKLPCNPCATTNACERPCISNPCVSRARCGPCNTFVH
# What was measured:
# [1] = tested on: yeast-induced fever model in rats; experiment: Yeast-induced fever model in SD rats; format: in vivo, rat; details: for Body temperature 2 hours after modeling: 2 h after 20% yeast s.c.; for Body temperature 4 hours after modeling: 4 h after 20% yeast s.c.; for Body temperature 6 hours after modeling: 6 h after 20% yeast s.c.; for Body temperature 8 hours after modeling: 8 h after 20% yeast s.c.; for Effect on increase in body temperature of model rats: vs model group P<0.05
# Procedure: Experimental example 1 The pharmacodynamic test of protein BD-4 (the protein in Example 4) on the fever model of SD rats induced by yeast
# • Normal control group; • Model group: yeast fever model; • Positive control group: Aspirin 300 mg/kg group; • Protein BD-4, 10 mg/kg group, 50 mg/kg group. Method:
# (§1) Preparation of experimental animals: After the experimental animals adapt to the experimental environment (temperature 22° C.±2° C., relative humidity 50%±2%) for 1 day. Pre-adaptation to measure rectal temperature at 8:00 and 15:00, Rats were fasted and water was taken freely 12 h before experiment. let the animal to empty its feces before measuring the rectal temperature. Apply petroleum jelly to the electronic thermometer probe before each temperature measurement. Insert the rat rectum 2 cm (can be marked at 2 cm to ensure that the depth of each insertion is consistent), and record the body temperature after the reading is stable.
# (§2) Subcutaneous injection of dry yeast to replicate rat fever model: The body temperature of the rats was measured before modeling. Qualified rats with a body temperature of 36.2-37.3° C. were selected and randomly divided into groups with 8 rats in each group. After oral administration of aspirin and different doses of protein BD-4, 20% yeast suspension (10 ml/kg) was injected subcutaneously immediately, and the normal control group was injected intraperitoneally with an equal volume of normal saline. the rats' body temperature was monitored after 2 hours for a total of 8 hours.
# (§3) According to the body temperature measured at each time point on the day of the experiment, calculate the mean, standard deviation and standard error of the body temperature of each group of rats. The data of each group was compared with TTEST, and P<0.05 was considered as a significant difference.
# [2] = tested on: lipopolysaccharide (LPS) induced fever in rats; experiment: Lipopolysaccharide (LPS) induced fever in SD rats; format: in vivo, rat; details: for Body temperature 2 hours after modeling: 2 h after LPS 20 μg/kg i.p.; for Body temperature 4 hours after modeling: 4 h after LPS 20 μg/kg i.p.; for Body temperature 6 hours after modeling: 6 h after LPS 20 μg/kg i.p.; for Body temperature 8 hours after modeling: 8 h after LPS 20 μg/kg i.p.
# Procedure: Experimental example 2 The pharmacodynamic test of protein BD-4 (Example 4 protein) on lipopolysaccharide (LPS) induced fever in SD rats.
# Experiment Grouping: • Model group: lipopolysaccharide fever model; • Positive control group: Aspirin 300 mg/kg group, • Protein BD-4, 10 mg/kg group, 50 mg/kg group. Method: the method of intraperitoneal injection of Lipopolysaccharide to create fever model in rats.
# as §1, with “experiment. before the experiment,” for “experiment.”
# as §2, with “Intraperitoneal” for “Subcutaneous”, “lipopolysaccharide” for “dry yeast”, “lipopolysaccharide (20 μg/kg, 2” for “20% yeast suspension (10”, “intraperitoneally” for “subcutaneously”
# as §3
# [3] = tested on: mice cough induced by ammonia water; experiment: Antitussive test, cough induced by ammonia water in mice; format: in vivo, mouse; details: for Incubation period: cough latency; for Incubation period / Number of coughs: X ± SEM; for Number of coughs: within 2 minutes
# Procedure: Experimental example 6 The effect of protein BD-4 (Example 4 protein) on the antitussive effect of the cough induced by ammonia water in mice. Animals: male ICR mice; Drugs and reagents: dextromethorphan hydrobromide, ammonia, 0.2% CMC-Na, protein BD-4; Apparatus: Compressed nebulizer (403T type), balance (XS105DU type). Experiment Grouping: • Solvent control group; • Dextromethorphan 15 mg/kg group; • Protein BD-4, 20 mg/kg group, 50 mg/kg group. Method: Model Preparation and Administration:
# Dextromethorphan and different doses of protein BD-4 (administration volume 10 ml/kg) were given orally in groups, and the solvent control group was given the same volume of distilled water. One hour later, it was put into a sealed box and atomized 10% ammonia water for 10 seconds, and then observed and recorded the incubation period of cough in mice and the number of coughs in 2 minutes.
# Record the time point of oral administration, the time point of atomization experiment, the incubation period of mice cough and the number of coughs within 2 minutes, respectively. The incubation period of cough refers to the number of seconds from the start of the atomization of ammonia to the occurrence of cough. The performance of coughing in mice is based on contraction of their abdominal muscles (breast contraction) and opening their mouths at the same time. Calculate the mean and standard error of each group of data, use TTEST to compare the model group with other groups, and P<0.05 is considered as a significant difference.
molecule,measurement,setting,value
B1,Body temperature 2 hours after modeling,[1]; 10 mg/kg oral,36.7 ± 0.1 °C
same,Body temperature 4 hours after modeling,[1]; 10 mg/kg oral,37.1 ± 0.1 °C
same,Body temperature 6 hours after modeling,[1]; 10 mg/kg oral,37.6 ± 0.1 °C
same,Body temperature 8 hours after modeling,[1]; 10 mg/kg oral,37.6 ± 0.2 °C
same,Effect on increase in body temperature of model rats,"[1]; 10 mg/kg, 4 hour after modeling",significantly inhibit the increase in body temperature
same,Body temperature 2 hours after modeling,[1]; 50 mg/kg oral,36.6 ± 0.1 °C
same,Body temperature 4 hours after modeling,[1]; 50 mg/kg oral,37.4 ± 0.1 °C
same,Body temperature 6 hours after modeling,[1]; 50 mg/kg oral,37.5 ± 0.1 °C
same,Body temperature 8 hours after modeling,[1]; 50 mg/kg oral,37.6 ± 0.1 °C
same,Effect on increase in body temperature of model rats,"[1]; 50 mg/kg, 8 hours after modeling",significantly inhibit the increase in body temperature
same,Effect on body temperature of model rats,"[2]; 10 mg/kg and 50 mg/kg, after modeling","tendency to lower the body temperature of model rats after modeling, but it is not statistically significant"
same,Body temperature 2 hours after modeling,[2]; 10 mg/kg oral,37.7 ± 0.1 °C
same,Body temperature 4 hours after modeling,[2]; 10 mg/kg oral,37.8 ± 0.l
same,Body temperature 6 hours after modeling,[2]; 10 mg/kg oral,37.8 ± 0.2 °C
same,Body temperature 8 hours after modeling,[2]; 10 mg/kg oral,37.5 ± 0.2 °C
same,Body temperature 2 hours after modeling,[2]; 50 mg/kg oral,37.6 ± 0.2 °C
same,Body temperature 4 hours after modeling,[2]; 50 mg/kg oral,37.7 ± 0.2 °C
same,Body temperature 6 hours after modeling,[2]; 50 mg/kg oral,37.6 ± 0.2 °C
same,Body temperature 8 hours after modeling,[2]; 50 mg/kg oral,37.5 ± 0.1 °C
same,Incubation period,[3]; 20 mg/kg oral,34.0 ± 2.4 s
same,Number of coughs,[3]; 20 mg/kg oral,55.9 ± 3.5
same,Cough incubation period vs solvent control group,"[3]; 20 mg/kg, P<0.05",significant improvement
same,Number of coughs vs solvent control group,"[3]; 20 mg/kg, P<0.05",significant improvement
same,Incubation period,[3]; 50 mg/kg oral,33.2 ± 3.9 s
same,Number of coughs,[3]; 50 mg/kg oral,62.1 ± 3.7
same,Number of coughs vs solvent control group,"[3]; 50 mg/kg, P<0.05",significant improvement
